Results reported in US20220281976A1 (Alector, published 2022).

T1: mouse CD33 Fc fusion protein (mouse, UniProt Q63994 18-240, limits assumed)
T1 construct: also called mCD33-Fc
T1 sequence: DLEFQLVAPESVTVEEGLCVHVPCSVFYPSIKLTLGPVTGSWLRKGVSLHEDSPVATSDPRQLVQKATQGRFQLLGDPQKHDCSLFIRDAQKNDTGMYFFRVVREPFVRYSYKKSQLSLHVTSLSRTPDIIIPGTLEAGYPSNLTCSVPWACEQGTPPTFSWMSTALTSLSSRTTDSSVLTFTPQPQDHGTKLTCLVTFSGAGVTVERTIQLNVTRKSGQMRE


Key:
[1] = molecular target: T2, human CD33 Fc fusion protein (human, UniProt P20138 18-259); experiment: RBC adhesion to plate-bound CD33-Fc; antibody 1.0 ug/ml;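 further: red blood cells adhering to plate-coated CD33-Fc after 1 h antibody pretreatment, then 1 h at room temperature, bound cells read as peroxidase activity after lysis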
T2 construct: also called hCD33-Fc; human CD33/Fc chimera (R&D Systems)
Experimental: Briefly, 5 ug/ml CD33-Fc was coated overnight at RT in 96 well Immunolon plates, then washed with PBS, blocked for one hour with binding buffer (PBS containing %0.25 BSA 1 mM CaCl₂). CD33 antibodies (0.5 ug/ml or 1.0 ug/ml) or Fabs (25 ug/ml) were bound for one hour at RT with gentle rocking. After removal of unbound antibody, red blood cells were added to each well at a concentration of 3.0×10⁶ cells per ml and incubated at RT for one hour. Unbound RBCs were then carefully washed off 3× with PBS, and water was added to each well for hypotonic lysis of bound RBCs. The plate was transferred to −80° C. for 10 minutes, followed by 37° C. for 15 minutes. Bound RBCs were detected by peroxidase activity, followed by 2N sulfuric acid to stop the reaction.

human CD33 [2] = molecular target: T3, human CD33 (human, UniProt P20138 18-364); experiment: cell-based or functional assay
[3] = molecular target: T1, mouse CD33 Fc fusion protein; experiment: ForteBio BLI or MSD-SET
[4] = molecular target: T4, human monomeric His tagged CD33 protein (human, UniProt P20138 18-259); experiment: ForteBio BLI or MSD-SET, IgG, monomeric antigen;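 further: BLI: antibodies captured on AHQ sensors, 100 nM antigen association 5 min, dissociation 5 min, 1:1 fit. MSD-SET: antigen fixed at 50 pM, antibody titrated, quadratic fit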
T4 construct: also called hCD33-His

human CD33 [5] = molecular target: T3, human CD33; experiment: flow cytometry, human primary dendritic cells;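 further: binding of anti-CD33 antibodies (10 ug/ml, 1 h on ice) to human primary dendritic cells, detected with a PE-labelled secondary antibody, reported as flow cytometry MFI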
human CD33 [6] = molecular target: T3, human CD33; experiment: flow cytometry, human primary macrophages;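 further: binding of CD33 antibodies at 10 µg/ml to human primary macrophages, 1 h on ice, detected with PE-labelled secondary antibody by flow cytometry, reported as MFI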
human CD33 [7] = molecular target: T3, human CD33; experiment: flow cytometry, human primary monocytes; parameters: reference not given here;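 further: binding of anti-CD33 antibodies at 10 ug/ml to human primary monocytes, 1 h on ice, detected by PE-labelled secondary antibody, flow cytometry readout as mean fluorescence intensity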
human CD33 [8] = molecular target: T3, human CD33; experiment: flow cytometry, human primary T cells;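 further: binding of anti-CD33 antibodies at 10 ug/ml to human primary T cells, 1 h on ice, detected with PE-labelled secondary antibody, read as flow cytometry MFI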
[9] = molecular target: T2, human CD33 Fc fusion protein; experiment: ForteBio BLI or MSD-SET, IgG, avid;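 further: Anti-CD33 IgG affinity by BLI, IgG captured on AHQ sensors with antigen in solution and a one-to-one kinetic fit, or by MSD solution equilibrium titration with quadratic fit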
[10] = molecular target: T2, human CD33 Fc fusion protein; experiment: RBC adhesion to plate-bound CD33-Fc; antibody 0.5 ug/ml;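 further: Plate-coated CD33-Fc preincubated 1 h with antibody, then red blood cells added for 1 h at room temperature, adherent cells lysed and quantified via peroxidase activity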

T4 sequence (P20138 18-259 limits assumed): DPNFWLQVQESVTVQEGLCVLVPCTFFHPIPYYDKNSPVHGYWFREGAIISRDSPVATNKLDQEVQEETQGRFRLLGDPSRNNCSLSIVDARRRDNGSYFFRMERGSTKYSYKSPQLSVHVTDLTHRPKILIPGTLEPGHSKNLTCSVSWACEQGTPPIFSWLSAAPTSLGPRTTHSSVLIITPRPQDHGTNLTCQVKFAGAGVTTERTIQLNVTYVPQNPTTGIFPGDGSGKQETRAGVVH
T2 sequence (P20138 18-259 limits assumed): as above
T3 sequence (P20138 18-364): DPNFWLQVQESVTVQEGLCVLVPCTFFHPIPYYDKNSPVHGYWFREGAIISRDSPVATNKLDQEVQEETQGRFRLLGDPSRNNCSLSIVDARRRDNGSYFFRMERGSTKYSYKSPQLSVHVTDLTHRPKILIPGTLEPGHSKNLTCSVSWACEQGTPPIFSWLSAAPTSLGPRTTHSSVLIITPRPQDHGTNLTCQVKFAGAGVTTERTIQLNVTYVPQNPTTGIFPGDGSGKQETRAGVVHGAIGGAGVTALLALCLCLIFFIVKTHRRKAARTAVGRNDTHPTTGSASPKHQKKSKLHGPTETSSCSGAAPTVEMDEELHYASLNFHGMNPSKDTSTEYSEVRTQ

Binder	Percent RBC Binding to CD33 [1]	Percent CD33 Surface Expression, DC % CD33 (human CD33 [2])	Percent CD33 Surface Expression, Macrophage % CD33 (human CD33 [2])	Percent CD33 Surface Expression, Monocyte % CD33 (human CD33 [2])	binding result [3]	Kd [4]	DC MFI (human CD33 [5])	Macrophage MFI (human CD33 [6])	Monocyte MFI (human CD33 [7])	T cell MFI (human CD33 [8])	Kd [9]	Percent RBC Binding to CD33 [10]
C-5 (antibody, V domains shown, human IgG1) VH: not shown VL: EIVLTQSPGTLSLSPGERATLSCRASQSVSSSFLAWYQQKPGQAPRLLIYGASSRATGIPDRFSGSGSGTDFTLTISRLEPEDFAVYYCQQVSSFPPTFGGGTKVEIK	13.8%	43.1%	73.3%	54.7%	no binding (tested: 100 nM)	15.6 nM	1460	866	177	357	3.17 nM	19.8%
C-43 (antibody, V domains shown, human IgG1) VH: QVQLVQSGAEVKKPGASVKVSCKASGYTFTSYYMHWVRQAPGQGLEWMGVINPSGGSTSYAQKFQGRVTMTRDTSTSTVYMELSSLRSEDTAVYYCAREEAVAADLGVDVWGQGTTVTVSS VL: not shown	8.99%	24.5%	42.5%	34.9%	no binding (tested: 100 nM)	9.04 nM	1500	908	151	192	2.06 nM	13.8%
C-59 (antibody, V domains shown, human IgG1) VH: QVQLVQSGAEVKKPGASVKVSCKASGYTFTSYYMHWVRQAPGQGLEWMGVINPSGGSTSYAQKFQGRVTMTRDTSTSTVYMELSSLRSEDTAVYYCAREGANYDSSGLDAWGQGTLVTVSS VL: not shown	10.7%	24.7%	41.5%	37.5%	no binding (tested: 100 nM)	9.16 nM	1130	598	140	191	1.6 nM	18.2%
C-24 (antibody, V domains shown, human IgG1) VH: QVQLVQSGAEVKKPGASVKVSCKASGYTFTSYYMHWVRQAPGQGLEWMGVINPSGGSTSYAQKFQGRVTMTRDTSTSTVYMELSSLRSEDTAVYYCARESQYYDVHGMDVWGQGTTVTVSS VL: DIQMTQSPSSLSASVGDRVTITCRASQSISSYLNWYQQKPGKAPKLLIYAASSLQSGVPSRFSGSGSGTDFTLTISSLQPEDFATYYCQQSVTPPLTFGGGTKVEIK	8.98%	28.8%	42.7%	43.1%	no binding (tested: 100 nM)	6.95 nM	1230	752	165	193	1.54 nM	13%
C-44 (antibody, V domains shown, human IgG1) VH: QLQLQESGPGLVKPSETLSLTCTVSGGSISSSSYAWGWIRQPPGKGLEWIGSIYYSGSTYYNPSLKSRVTISVDTSKNQFSLKLSSVTAADTAVYYCAREGYVAAYGMDVWGQGTTVTVSS VL: DIQMTQSPSSLSASVGDRVTITCRASQSISSYLNWYQQKPGKAPKLLIYAASSLQSGVPSRFSGSGSGTDFTLTISSLQPEDFATYYCQQAYYPPWTFGGGTKVEIK	10.5%	14.7%	57.3%	24.8%	no binding (tested: 100 nM)	2.62 nM	1520	892	161	310	0.612 nM	13.3%
C-56 (antibody, V domains shown, human IgG1) VH: EVQLVESGGGLVQPGGSLRLSCAASGFTFSSYWMSWVRQAPGKGLEWVANIKQDGSEKYYVDSVKGRFTISRDNAKNSLYLQMNSLRAEDTAVYYCARDYGSVAGTPFDYWGQGTLVTVSS VL: DIQMTQSPSSLSASVGDRVTITCRASQSISSYLNWYQQKPGKAPKLLIYAASSLQSGVPSRFSGSGSGTDFTLTISSLQPEDFATYYCQQVLHTPLTFGGGTKVEIK	10.5%	19.7%	40%	41.6%	no binding (tested: 100 nM)	4.98 nM	1560	846	136	230	1.1 nM	15.7%
C-57 (antibody, V domains shown, human IgG1) VH: EVQLVESGGGLVQPGGSLRLSCAASGFTFSSYSMNWVRQAPGKGLEWVSYISSSSSTIYYADSVKGRFTISRDNAKNSLYLQMNSLRAEDTAVYYCARGGEGRPYLDIWGQGTMVTVSS VL: not shown	10.6%	20.7%	41.8%	37.1%	no binding (tested: 100 nM)	7.67 nM	1490	867	162	234	1.8 nM	15.8%
C-45 (antibody, V domains shown, human IgG1) VH: not shown VL: DIQMTQSPSSVSASVGDRVTITCRASQGISSWLAWYQQKPGKAPKLLIYAASSLQSGVPSRFSGSGSGTDFTLTISSLQPEDFATYYCQQAYSFPTFGGGTKVEIK	110%	65.7%		78.2%	no binding (tested: 100 nM)	12.8 nM	1150	1010	182	55.4	2.25 nM	114%
C-41 (antibody, V domains shown, human IgG1) VH: QLQLQESGPGLVKPSETLSLTCTVSGGSISSSSYYWGWIRQPPGKGLEWIGSISYSGSTYYNPSLKSRVTISVDTSKNQFSLKLSSVTAADTAVYYCAREGGKGMDVWGQGTLVTVSS VL: EIVLTQSPGTLSLSPGERATLSCRASQSVSSSFLAWYQQKPGQAPRLLIYGASSRATGIPDRFSGSGSGTDFTLTISRLEPEDFAVYYCQQFGDLPTFGGGTKVEIK	8.19%	18.6%	39.5%	40.8%	no binding (tested: 100 nM)	4.37 nM	1810	945	180	208	1.06 nM	10.7%
